Experimental data: patent US20220273789A1
Where two headings read alike, the source gives them in different places.

How the values were obtained:
human IgG (human) [1] = assay: BLI Octet, construct on Ni-NTA sensor, hIgG in solution
human IgG (human) [2] = assay: BLI (Octet), gEgI on Ni-NTA sensor, hIgG in solution
human IgG (human) [3] = assay: as above; remark: listed apart in the source
[4] = molecular target: Recombinant HSV1 gEgI protein (coating antigen of the competitive ELISA, produced in ExpiCHO) (HSV1 strain KOS321; HSV1 strain 17); assay: ED50 of the competitive ELISA (competitor: human IgG); GM of N=4 mice, 14PIII (D42); 5 is the value given to negative samples (first dilution/2), below the positivity threshold (1/10)
[5] = molecular target: Recombinant HSV2 gEgI protein (coating antigen of the competitive ELISA, produced in ExpiHEK293F) (HSV2 strain SD90e) (UniProt P89475); assay: as above
[6] = molecular target: Recombinant HSV1 gEgI protein (coating antigen of the competitive ELISA, produced in ExpiCHO) (HSV1 strain KOS321; HSV1 strain 17); assay: ED50 of the competitive ELISA (competitor: human IgG); GM of N=5 mice, 21PII (D49); 5 is the value given to negative samples (first dilution/2), below the positivity threshold (1/10)
[7] = molecular target: Recombinant HSV2 gEgI protein (coating antigen of the competitive ELISA, produced in ExpiHEK293F) (HSV2 strain SD90e) (UniProt P89475); assay: ED50 of the competitive ELISA (competitor: human IgG); GM of N=4 mice, 21PIII (D63); bar below the positivity threshold (1/10), 5 being the first dilution/2
human IgG (human) [8] = assay: BLI (Octet), His-tagged gEgI immobilised on Ni-NTA sensor, response to human IgG

| Substance | Kd (human IgG (human) [1]) | Response (nm) (human IgG (human) [1]) | koff (human IgG (human) [1]) | kon (human IgG (human) [1]) | Kd (human IgG (human) [2]) | Response (human IgG (human) [2]) | hIgG binding response (human IgG (human) [8]) | further results |
| --- | --- | --- | --- | --- | --- | --- | --- | --- |
| HSV2-gE_H245G R320D_gI (from UniProt P89475 21-416; P06764 21-256) (receptor) | 14200 nM | 0.0927 nm | 0.00667 s⁻¹ | 469 M⁻¹ s⁻¹ | 14200 nM | 0.0927 nm | – | – |
| HSV2-gE_H245G R320G_gI (from UniProt P89475 21-416; P06764 21-256) (receptor) | 777 nM | 0.225 nm | 0.00407 s⁻¹ | 5240 M⁻¹ s⁻¹ | 777 nM | 0.225 nm | – | – |
| HSV2-gE_H245S R320D_gI (from UniProt P89475 21-416; P06764 21-256) (receptor) | 1740 nM | 0.121 nm | 0.00468 s⁻¹ | 2690 M⁻¹ s⁻¹ | 1740 nM | 0.121 nm | – | – |
| HSV2-gE_H245S R320G_gI (from UniProt P89475 21-416; P06764 21-256) (receptor) | 745 nM | 0.196 nm | 0.0039 s⁻¹ | 5240 M⁻¹ s⁻¹ | 745 nM | 0.196 nm | – | – |
| HSV2-gE_H245S R320T_gI (from UniProt P89475 21-416; P06764 21-256) (receptor) | 718 nM | 0.205 nm | 0.00503 s⁻¹ | 7000 M⁻¹ s⁻¹ | 718 nM | 0.205 nm | – | – |
| HSV2-gE_P318I_gI (from UniProt P89475 21-416; P06764 21-256) (receptor) | 4440 nM | 0.163 nm | 0.00752 s⁻¹ | 1690 M⁻¹ s⁻¹ | 4440 nM | 0.163 nm | – | – |
| HSV2-gE_P318R S338G_gI (from UniProt P89475 21-416; P06764 21-256) (receptor) | – | – | – | – | 0.001 nM | – | – | Kd (human IgG (human) [3]): < 0.001 nM; Response (human IgG (human) [3]): 0.177 nm; koff (human IgG (human) [3]): < 1e-07 s⁻¹; kon (human IgG (human) [3]): 8690 M⁻¹ s⁻¹ |
| HSV2-gE_R320E_gI (from UniProt P89475 21-416; P06764 21-256) (receptor) | 4950 nM | 0.223 nm | 0.00455 s⁻¹ | 919 M⁻¹ s⁻¹ | 4950 nM | 0.223 nm | – | – |
| HSV2-gE_V340D_gI (from UniProt P89475 21-416; P06764 21-256) (receptor) | < 0.001 nM | 0.115 nm | < 1e-07 s⁻¹ | 5330 M⁻¹ s⁻¹ | 0.001 nM | 0.115 nm | – | – |
| HSV2-gE_V340F_gI (from UniProt P89475 21-416; P06764 21-256) (receptor) | < 0.001 nM | 0.114 nm | < 1e-07 s⁻¹ | 3140 M⁻¹ s⁻¹ | 0.001 nM | 0.114 nm | – | – |
| HSV2-gE_V340W_gI (from UniProt P89475 21-416; P06764 21-256) (receptor) | < 0.001 nM | 0.0751 nm | < 1e-07 s⁻¹ | 3520 M⁻¹ s⁻¹ | 0.001 nM | 0.0751 nm | – | – |
| NaCl150mM | – | – | – | – | – | – | – | ED50 (geometric mean) (reciprocal dilution) [4]: 5; ED50 titer (geometric mean) (reciprocal dilution) [5]: 5; ED50 titer (geometric mean) (reciprocal dilution) [6]: 5; ED50 titer (geometric mean) (reciprocal dilution) [7]: 5 |
| PN90 (HSV2-gE_gI) (from UniProt P89475 21-416; P06764 21-256) (receptor) | – | – | – | – | – | – | 0.623 nm | – |
| PN91 (HSV2-gE_P317R-P319D_gI) (from UniProt P89475 21-416; P06764 21-256) (receptor) | – | – | – | – | – | – | 0.0658 nm | – |
| PN92 (HSV2-gE_P317R-R320D_gI) (from UniProt P89475 21-416; P06764 21-256) (receptor) | – | – | – | – | – | – | 0.056 nm | – |
| PN93 (HSV2-gE_P319D-R320D_gI) (from UniProt P89475 21-416; P06764 21-256) (receptor) | – | – | – | – | – | – | 0.0658 nm | – |
| PN94 (HSV2-gE_Δ319-320_gI) (from UniProt P89475 21-416; P06764 21-256) (receptor) | – | – | – | – | – | – | 0.115 nm | – |
| PN95 (HSV2-gE_P317G-P318G_Δ319-320_gI) (from UniProt P89475 21-416; P06764 21-256) (receptor) | – | – | – | – | – | – | 0.0748 nm | – |
| PN96 (HSV2-gE_P318E_Δ319-320_gI) (from UniProt P89475 21-416; P06764 21-256) (receptor) | – | – | – | – | – | – | 0.0619 nm | – |
| PN97 (HSV2-gE_P318G_Δ319-320_gI) (from UniProt P89475 21-416; P06764 21-256) (receptor) | – | – | – | – | – | – | 0.146 nm | – |
| PN98 (HSV2-gE_P318K_Δ319-320_gI) (from UniProt P89475 21-416; P06764 21-256) (receptor) | – | – | – | – | – | – | 0.135 nm | – |
| PN99 (HSV2-gE_P317R-P318E_Δ319-320_gI) (from UniProt P89475 21-416; P06764 21-256) (receptor) | – | – | – | – | – | – | 0.0795 nm | – |
| PN100 (HSV2-gE_P317R-P318G_Δ319-320_gI) (from UniProt P89475 21-416; P06764 21-256) (receptor) | – | – | – | – | – | – | 0.0877 nm | – |
| PN101 (HSV2-gE_P317G-P318K_Δ319-320_gI) (from UniProt P89475 21-416; P06764 21-256) (receptor) | – | – | – | – | – | – | 0.0868 nm | – |
